Our source for the Fluorescence values is patent publication US20020058619A1.

For test [1], the target named is Recombinant human Flt-1/Fc chimera (R&D Systems) (human) (UniProt P17948). Description: fluorescence plate assay; control peptide at 0 µM on immobilized Flt-1/Fc.
Test [2] has the same target. Nature of the test: fluorescence plate assay; control peptide at 1 µM on immobilized Flt-1/Fc.
Test [3] shares this target. Description: fluorescence plate assay; control peptide at 10 µM on immobilized Flt-1/Fc.
Test [4] shares this target. Nature of the test: fluorescence plate assay; control peptide at 0.1 µM on immobilized Flt-1/Fc.
Test [5] shares this target. Nature of the test: fluorescence plate assay; control peptide at 100 µM on immobilized Flt-1/Fc.

Recombinant human Flt-1/Fc chimera (R&D Systems) (human), sequence (P17948 other isoform, or with tags, fused parts or gaps mutant limits assumed): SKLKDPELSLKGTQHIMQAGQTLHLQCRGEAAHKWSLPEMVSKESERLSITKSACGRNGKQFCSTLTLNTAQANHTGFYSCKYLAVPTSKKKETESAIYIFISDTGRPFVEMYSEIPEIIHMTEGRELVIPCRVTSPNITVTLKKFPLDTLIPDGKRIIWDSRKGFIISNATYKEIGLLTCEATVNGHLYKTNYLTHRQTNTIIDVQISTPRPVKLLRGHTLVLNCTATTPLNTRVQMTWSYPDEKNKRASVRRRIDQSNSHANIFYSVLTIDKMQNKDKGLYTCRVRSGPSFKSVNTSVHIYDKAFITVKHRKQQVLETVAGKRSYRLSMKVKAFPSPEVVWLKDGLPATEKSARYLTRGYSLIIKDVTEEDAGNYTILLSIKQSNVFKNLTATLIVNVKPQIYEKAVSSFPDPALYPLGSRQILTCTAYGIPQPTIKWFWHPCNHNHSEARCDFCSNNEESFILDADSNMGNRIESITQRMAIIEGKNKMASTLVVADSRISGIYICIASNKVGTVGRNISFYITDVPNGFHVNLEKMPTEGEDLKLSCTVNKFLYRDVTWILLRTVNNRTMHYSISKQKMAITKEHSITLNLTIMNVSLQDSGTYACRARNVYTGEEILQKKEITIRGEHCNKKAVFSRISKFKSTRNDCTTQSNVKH

In the case of Control peptide (Table 5), the Fluorescence was 0 in test [1]; 20 in test [2]; 493 in test [3]; 7 in test [4]; 1100 in test [5].
